Results published in patent US20240317847A1 (Bayer, published 2024).
Each block holds one binder with its values, some of them ahead of it.

Key:
murine IL-11 [1] = biological target: T1, murine IL-11 (mouse, UniProt P47873 22-199); experiment: Tri-complex ELISA, mIL-11 + mIL-11Ra-Fc + mgp130-Fc, inhibition of complex formation
T1 construct: Invigate recombinant protein; biotinylated when immobilized in the Di-complex ELISA; also called mIL11; mIL-11
T1 sequence: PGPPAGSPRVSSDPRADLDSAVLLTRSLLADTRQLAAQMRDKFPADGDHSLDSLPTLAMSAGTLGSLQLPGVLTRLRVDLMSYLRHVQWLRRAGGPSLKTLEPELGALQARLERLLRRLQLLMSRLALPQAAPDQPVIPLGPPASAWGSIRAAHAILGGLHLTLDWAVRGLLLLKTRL
Method: (§1) In the Tri-complex ELISA format IL-11 antibodies are tested for their ability to inhibit the formation of a complex consisting of murine or human gp130-Fc fusion protein, with murine or human IL-11, and a murine IL11RA-Fc fusion protein. The assay format was adapted according to FIG. 18 (a, b), depending on whether murine or human IL-11 IgG antibodies were tested.
(§2) Bispecific antibodies were subjected to the experimental assay procedure described in Example 19 and IC50 [M], respectively efficacy (%) were calculated accordingly.

human IL-11 [2] = biological target: T2, human IL-11 (human, UniProt P20809 22-199); experiment: Tri-complex ELISA, hIL-11 + mIL-11Ra-Fc + hgp130-Fc, inhibition of complex formation
T2 construct: Invigate recombinant protein; biotinylated when immobilized in the Di-complex ELISA; also called hIL11; hIL-11
T2 sequence: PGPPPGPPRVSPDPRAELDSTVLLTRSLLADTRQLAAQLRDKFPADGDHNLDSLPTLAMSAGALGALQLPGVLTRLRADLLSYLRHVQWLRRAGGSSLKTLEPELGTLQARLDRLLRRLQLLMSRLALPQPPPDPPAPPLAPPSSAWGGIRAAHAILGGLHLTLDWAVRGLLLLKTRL
Method: as §1, §2

murine IL-11 [3] = biological target: T1, murine IL-11; experiment: Di-complex ELISA, murine IL11RA-Fc binding to immobilized mIL-11, competition
Method: In the Di-complex ELISA format anti IL-11 antibodies are tested for the ability to interfere with the formation of complexes consisting of immobilized murine IL-11 (Invigate, e.g., lot #C210819-09) or human IL-11 (Invigate, e.g., lot #C121021-19), and murine IL11RA-Fc fusion proteins or canine IL11RA-human-Fc fusion protein (FIG. 17a, b).
Bispecific antibodies were subjected to the experimental assay procedure described in Example 18 and IC50 [M], respectively efficacy (%) were calculated accordingly.

human IL-11 [4] = biological target: T2, human IL-11; experiment: SPR (Biacore), 25 C, antibody captured via anti-Fc, IL-11 as analyte
Method: (§3) To assess the binding kinetics and affinity of anti-IL-11 bispecific antibodies as well as their species cross-reactivity profile, binding assays were conducted using surface plasmon resonance (SPR). […] Antibodies were captured either via anti-human Fc IgGs (“Human antibody capture kit”, Order No. BR100839, Cytiva) or via anti-mouse Fc IgGs (“Mouse antibody capture kit, Order No. BR100383, Cytiva) covalently amine coupled to a Series S CM5 sensor chip (Cytiva) depending on the isotype. The amine coupling was carried out according to the manufacturer's instructions using 1-ethyl-3-(3-dimethylaminopropyl) carbodiimide hydrochloride (EDC), N-hydroxysuccinimide (NHS) and ethanolamine HCl, pH 8.5 (“Amine Coupling Kit” BR-1000-50, Cytiva.). Human, mouse, cynomolgus or rat IL-11 was used as analyte at several dilutions within the concentration range from 0.05-200 nM. For binding assays with only one concentration 200 nM IL-11 was used. The sensor surface was regenerated with glycine pH 1.7 after each antigen injection. Obtained sensorgrams were double referenced (subtraction of reference flow cell signal and buffer injection) and were fitted to a 1:1 Langmuir binding model to derive kinetic data using the Biacore T200 Evaluation software or the Biacore Insight software.
(§4) If no value is reported, there was either no binding or very low binding and multiphasic binding behavior.

rat IL-11 [5] = biological target: T3, rat IL-11 (rat, UniProt Q99MF5 22-199); experiment: as above
T3 construct: Invigate recombinant protein; also called rIL11
T3 sequence: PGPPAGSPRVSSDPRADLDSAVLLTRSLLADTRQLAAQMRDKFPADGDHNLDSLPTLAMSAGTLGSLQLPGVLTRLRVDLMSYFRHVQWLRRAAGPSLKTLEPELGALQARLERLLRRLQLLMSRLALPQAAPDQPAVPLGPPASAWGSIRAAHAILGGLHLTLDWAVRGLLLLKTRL
Method: as §3, §4

murine IL-11 [6] = biological target: T1, murine IL-11; experiment: as above
Method: as §3, §4

cynomolgus IL-11 [7] = biological target: T4, cynomolgus IL-11 (cynomolgus, UniProt P20808 22-199); experiment: as above
T4 construct: Invigate recombinant protein; also called cIL11; Macaca IL-11
T4 sequence: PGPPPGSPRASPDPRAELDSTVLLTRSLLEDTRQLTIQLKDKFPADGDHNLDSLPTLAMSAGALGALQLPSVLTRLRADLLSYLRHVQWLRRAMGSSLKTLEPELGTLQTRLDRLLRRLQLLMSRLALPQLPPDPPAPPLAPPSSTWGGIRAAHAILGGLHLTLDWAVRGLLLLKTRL
Method: as §3, §4

human IL2Ra = biological target: T5, human IL2Ra (human, UniProt P01589 22-240, limits assumed); experiment: ELISA on coated IL2Ra, signal ratio to isotype control at 1E-07 M antibody
T5 construct: coated on the ELISA plate; also called IL-2 receptor alpha
T5 sequence (looked up): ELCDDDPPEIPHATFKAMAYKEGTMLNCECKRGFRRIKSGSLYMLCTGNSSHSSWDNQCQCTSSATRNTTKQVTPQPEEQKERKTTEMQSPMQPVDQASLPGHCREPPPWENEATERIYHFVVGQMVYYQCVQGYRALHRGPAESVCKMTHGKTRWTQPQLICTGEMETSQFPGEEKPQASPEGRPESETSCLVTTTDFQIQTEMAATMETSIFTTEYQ
Method: IL2RA (Peprotech, Germany, #200-02RC) was coated at 1 or 0 μg/ml (buffer only control) in 30 μl coating buffer (Candor, #113500) per well on a 384 well microtiter plate (Maxisorb, Nunc, #460518) over night at 4-8° C. After two washes with 50 μl/well washing buffer (PBS+0.05% Tween, pH 7.4), the plates were incubated for two hours at room temperature with 50 μl/well SmartBlock (Candor, #113500). After blocking, the plates were washed three times with washing buffer. Then, a dilution series of the respective antibody (1E-7 [M] down to 2E-13 [M]) in PBS+0.05% Tween, 10% SmartBlock were added in 30 μl to the microtiter plate and incubated for 90 min at room temperature. After three additional washes, 30 μl anti mouse IgG HRP-conjugated antibody (Biotechne, HAF007), diluted 1:1000 in PBS+0.05% Tween (pH 7.4), were added per well and incubated for one hour. After three additional washes, a mixture of Amplex red (Invitrogen, #12222, 10 mM stock solution in DMSO) 1:1000 diluted in PBS and H2O2 (30%, Merck, #107209)) diluted 1:10000 in PBS were added as substrate with 30 μl per well and incubated for 20 min in the dark. Relative fluorescence was measured with a microtiter plate reader at 535/590 nm.
Bispecific antibodies were subjected to the experimental assay procedure described in Example 20. Ratios of the signals generated at an antibody concentration of 1E-07 [M] by the respective bispecific antibody versus those of an isotype control antibody were calculated and are shown in Table E29. The bispecific antibodies show no binding to IL-2 Ra.

human IL-11 [8] = biological target: T2, human IL-11; experiment: cell-based or functional assay
murine IL-11 [9] = biological target: T1, murine IL-11; experiment: cell-based or functional assay
rat IL-11 [10] = biological target: T6, rat IL-11 (rat, UniProt Q99MF5 22-199); experiment: cell-based or functional assay
T6 sequence: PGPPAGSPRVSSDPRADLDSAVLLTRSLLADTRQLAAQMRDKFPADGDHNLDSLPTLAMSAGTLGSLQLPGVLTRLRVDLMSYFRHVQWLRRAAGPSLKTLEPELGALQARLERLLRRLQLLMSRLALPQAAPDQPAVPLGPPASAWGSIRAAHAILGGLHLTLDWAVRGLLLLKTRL

cynomolgus IL-11 [11] = biological target: T7, cynomolgus IL-11 (cynomolgus, UniProt P20808 22-199); experiment: cell-based or functional assay
T7 sequence: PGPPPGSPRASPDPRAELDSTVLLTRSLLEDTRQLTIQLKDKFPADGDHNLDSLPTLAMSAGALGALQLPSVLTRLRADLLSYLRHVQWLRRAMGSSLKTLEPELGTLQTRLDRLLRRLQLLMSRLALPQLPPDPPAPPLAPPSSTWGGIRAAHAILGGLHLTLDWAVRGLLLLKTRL

murine IL-11 [12] = biological target: T8, murine IL-11 (mouse, UniProt P47873 22-199); experiment: cell-based or functional assay; remark: listed apart in the source
T8 sequence: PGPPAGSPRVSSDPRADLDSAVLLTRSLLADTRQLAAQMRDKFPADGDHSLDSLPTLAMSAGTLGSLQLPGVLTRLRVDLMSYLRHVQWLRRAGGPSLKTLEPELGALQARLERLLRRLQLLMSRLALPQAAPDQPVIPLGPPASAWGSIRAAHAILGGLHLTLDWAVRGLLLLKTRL

human IL-11 [13] = biological target: T9, human IL-11 (human, UniProt P20809 22-199); experiment: cell-based or functional assay; remark: listed apart in the source
T9 sequence: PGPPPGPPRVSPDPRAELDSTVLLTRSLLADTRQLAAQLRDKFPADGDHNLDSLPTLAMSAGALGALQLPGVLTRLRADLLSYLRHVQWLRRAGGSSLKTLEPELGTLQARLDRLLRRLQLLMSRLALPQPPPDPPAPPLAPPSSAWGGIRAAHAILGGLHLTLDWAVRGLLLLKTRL

murine IL-11 [14] = biological target: T8, murine IL-11; experiment: Di-complex ELISA, competitor murine IL11RA-Fc on coated IL-11
human IL-11 [15] = biological target: T9, human IL-11; experiment: as above
rat IL-11 [16] = biological target: T6, rat IL-11; experiment: SPR 37 C, antibody captured, IL-11 as analyte
cynomolgus IL-11 [17] = biological target: T7, cynomolgus IL-11; experiment: SPR 37 C, antibody captured, IL-11 as analyte
murine IL-11 [18] = biological target: T8, murine IL-11; experiment: SPR 37 C, antibody captured, IL-11 as analyte
human IL-11 [19] = biological target: T9, human IL-11; experiment: SPR 37 C, antibody captured, IL-11 as analyte

Efficacy (%) (murine IL-11 [1]): 94%
IC50 (murine IL-11 [1]): 1.81 nM
Efficacy (%) (human IL-11 [2]): 105%
IC50 (human IL-11 [2]): 6.28 nM
IC50 (murine IL-11 [3]): 35 nM
Kd (human IL-11 [4]): 0.011 nM
Kd (rat IL-11 [5]): 0.0026 nM
Kd (murine IL-11 [6]): 0.005 nM
Kd (cynomolgus IL-11 [7]): 0.025 nM
Ratio IL-2Ra Binding Signal Antibody/Isotype Control (human IL2Ra): 852 ratio
Efficacy (%), Stat3 reporter gene assay (human IL-11 [8]): 102%
IC50, Stat3 reporter gene assay (human IL-11 [8]): 0.31 nM
Efficacy (%), Stat3 reporter gene assay (murine IL-11 [9]): 93.9%
IC50, Stat3 reporter gene assay (murine IL-11 [9]): 1 nM
B1: TPP-20489 (bispecific antibody, IgG1)
chain 1: not shown
chain 2: EVQLLESGGGLVQPGGSLRLSCAASGFTFSHYDMNWLRQAPGKGLEWVGVISYDGSNKFYADFVKGRFTISRDNSKNTLYLQMNSLRAEDTAVYYCARTPGSHFDYWGQGTLVTVSSGGGGSGGGGSGGGGSQSVLTQPPSASGTPGQRVTISCSGSSSNIGNNAVNWYQQLPGTAPKLLIYYDDLLPSGVPDRFSGSKSGTSASLAISGLRSEDEADYYCSAWDDSLNGVVFGGGTKLTVLGGGGSGGGGSGGGGSGVECPPCPAPELLGGPSVFLFPPKPKDTLMISRTPEVTCVVVDVSHEDPEVKFNWYVDGVEVHNAKTKPREEQYNSTYRVVSVLTVLHQDWLNGKEYKCKVSNKALPAPIEKTISKAKGQPREPQVCTLPPSRDELTKNQVSLSCAVKGFYPSDIAVEWESNGQPENNYKTTPPVLDSDGSFFLVSKLTVDKSRWQQGNVFSCSVMHEALHNHYTQKSLSLSPG
notes: scFv-kih-hIgG1

RGA Efficacy (%) (rat IL-11 [10]): 81.3%
RGA IC50 (rat IL-11 [10]): 8.8 nM
RGA Efficacy (%) (cynomolgus IL-11 [11]): 52.4%
RGA Efficacy (%) (murine IL-11 [12]): 90.9%
RGA IC50 (murine IL-11 [12]): 8.1 nM
RGA Efficacy (%) (human IL-11 [13]): 76.7%
RGA IC50 (human IL-11 [13]): 3.7 nM
Efficacy (%) (murine IL-11 [14]): 98.4%
IC50 (murine IL-11 [14]): 3.3 nM
Efficacy (%) (human IL-11 [15]): 97.2%
IC50 (human IL-11 [15]): 2.9 nM
Kd (rat IL-11 [16]): 3.2 nM
binding result (cynomolgus IL-11 [17]): no binding (tested: IL-11 up to 200 nM)
Kd (murine IL-11 [18]): 1.8 nM
Kd (human IL-11 [19]): 1.4 nM
B2: TPP-23552 (antibody, human IgG1, kappa)
heavy: not shown
light: DIVLTQSPASLALSPGERATLSCRASKSVSTSGYSYIHWYQQKPGQPPRLLIYLASNLDSGVPARFSGSGSGTDFTLNIHPLEEEDFATYYCQHSRDLPPTFGQGTKLEIKRTVAAPSVFIFPPSDEQLKSGTASVVCLLNNFYPREAKVQWKVDNALQSGNSQESVTEQDSKDSTYSLSSTLTLSKADYEKHKVYACEVTHQGLSSPVTKSFNRGEC
notes: hIgG1, Kappa; also called BSN 3C6 (WO2019238882)
